# Measurements: patent US20110311601A1, “ANTIMICROBIAL MEDICAL DEVICES” (priority 2010, published 2011)
# Residue numbers refer to the chain shown, from its start. Where no end group is shown, it is not given here.
# B1: Ribonuclease 7 (protein)
# chain: KPKGMTSSQWFKIQHMQPSPQACNSAMKNINKHTKRCKDLNTFLHEPFSSVAATCQTPKIACKNGDKNCHQSHGPVSLTMCKLTSGKYPNCRYKEKRQNKSYVVACKPPQKKDSQQFHLVPVHLDRVL
# modifications: Homo sapien
# B2: mutRNAse7: Ribonuclease 7 derivative, SEQ ID NO: 10 (protein)
# chain: B1 chain with K38R, H123D
# modifications: Synthetic primer
# Key:
# [1] = test system: Escherichia coli strain DB3.1; assay: microdilution assay of hβD2 coated biopolymers (percentage killing); format: cell-based; settings: blocking substance alone, without hβD2
# Method: Microdilution assay. In the microdilution assay the microorganisms were exposed to a potential bio-active substance in liquid surrounding, thus free to move. This potential bio-active substance was either homogenously dispersed in the liquid surrounding by active mixing at the beginning of the tests or could spread out of the sample during incubation time. The bioactivity was measured in percentage killing, wherein the number of colony forming units (CFU) in a control without test substance was set to 0% killing and a reduction in the cell number to zero was set to 100% killing.
# Fresh cells were harvested by centrifugation at 1600 rpm for 10 min, the supernatant was removed and the cell pellet was resuspended in 5 ml 10 mM sodium phosphate buffer. This procedure was repeated twice. The optical density was adjusted to OD600 of 0.500 with 10 mM sodium phosphate buffer. 100 μl of the bacterial suspension was pipetted in one well of a microtiter plate without optimized surface. 10 μl test substance or test sample was added. In case of a test substance, the mixture was homogenized by absorbing the mixture several times with a pipette. The microtiter plate is then closed with parafilm and incubated at 37° C. for 2 h. After incubation the substances in the wells were mixed by a pipette. […] For evaluation, the grown colonies were counted.
# The microdilution assay facilitates the examination of the hβD2 release kinetics of the biopolymers and thus allowed conclusions on what amounts of hβD2 in which time could be released. For comparing on evaluation of the assay the effect of directly applied hβD2 amounts with the effect of hβD2 amounts applied on biopolymers, the achieved percentage killing of bacteria was compared to the killing rate of the hβD2 standard series in the microdilution assays.
# The collagen scaffolds and polylactide matrices were examined in the microdilution assay regarding their hβD2 release kinetics. Since the incubation time of the samples in the bacterial suspension is limited, the samples were stored at −25° C. after the test and until completion of a further assay. The thawed samples were then used in a new assay and were incubated again.
# gram-positive bacteria = settings: covalently attached onto titanium surfaces, in vitro; cited from earlier work
# [2] = target: collagen scaffold (bovine collagen type I) (bovine, UniProt P02453 162-1217; P02465 80-1117, limits assumed); assay: cell-based or functional assay
# Sequence of collagen scaffold (bovine collagen type I) (P02453 162-1217 limits assumed, chain 1 of 2): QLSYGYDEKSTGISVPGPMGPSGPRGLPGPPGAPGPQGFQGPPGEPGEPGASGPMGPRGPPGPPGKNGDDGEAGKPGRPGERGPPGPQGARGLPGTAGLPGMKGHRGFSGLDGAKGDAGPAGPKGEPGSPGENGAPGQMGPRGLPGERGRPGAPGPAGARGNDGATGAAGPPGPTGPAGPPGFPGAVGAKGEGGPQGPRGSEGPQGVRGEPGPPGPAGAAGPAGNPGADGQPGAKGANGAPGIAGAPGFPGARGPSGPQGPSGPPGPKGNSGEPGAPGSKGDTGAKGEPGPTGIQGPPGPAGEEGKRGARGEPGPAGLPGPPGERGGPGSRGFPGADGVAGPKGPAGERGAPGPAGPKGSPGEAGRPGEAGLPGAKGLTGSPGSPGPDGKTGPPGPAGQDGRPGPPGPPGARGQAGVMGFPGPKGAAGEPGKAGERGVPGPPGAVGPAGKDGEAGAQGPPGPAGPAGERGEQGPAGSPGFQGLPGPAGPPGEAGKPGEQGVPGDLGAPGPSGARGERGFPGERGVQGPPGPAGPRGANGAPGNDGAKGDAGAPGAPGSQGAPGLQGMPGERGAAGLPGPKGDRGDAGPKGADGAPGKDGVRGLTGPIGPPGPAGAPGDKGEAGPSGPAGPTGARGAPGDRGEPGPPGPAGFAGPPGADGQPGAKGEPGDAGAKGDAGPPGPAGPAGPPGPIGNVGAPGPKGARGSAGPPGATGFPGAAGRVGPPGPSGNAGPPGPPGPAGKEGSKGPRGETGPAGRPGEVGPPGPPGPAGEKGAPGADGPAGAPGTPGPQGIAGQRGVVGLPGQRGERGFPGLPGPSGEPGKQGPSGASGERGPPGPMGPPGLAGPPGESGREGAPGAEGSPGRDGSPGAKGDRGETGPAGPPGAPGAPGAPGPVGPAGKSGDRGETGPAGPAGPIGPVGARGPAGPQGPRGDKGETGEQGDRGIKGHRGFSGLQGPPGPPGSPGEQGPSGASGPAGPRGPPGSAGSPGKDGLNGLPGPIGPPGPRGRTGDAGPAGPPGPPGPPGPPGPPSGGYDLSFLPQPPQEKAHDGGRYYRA
# Sequence of collagen scaffold (bovine collagen type I) (P02465 80-1117 limits assumed, chain 2 of 2): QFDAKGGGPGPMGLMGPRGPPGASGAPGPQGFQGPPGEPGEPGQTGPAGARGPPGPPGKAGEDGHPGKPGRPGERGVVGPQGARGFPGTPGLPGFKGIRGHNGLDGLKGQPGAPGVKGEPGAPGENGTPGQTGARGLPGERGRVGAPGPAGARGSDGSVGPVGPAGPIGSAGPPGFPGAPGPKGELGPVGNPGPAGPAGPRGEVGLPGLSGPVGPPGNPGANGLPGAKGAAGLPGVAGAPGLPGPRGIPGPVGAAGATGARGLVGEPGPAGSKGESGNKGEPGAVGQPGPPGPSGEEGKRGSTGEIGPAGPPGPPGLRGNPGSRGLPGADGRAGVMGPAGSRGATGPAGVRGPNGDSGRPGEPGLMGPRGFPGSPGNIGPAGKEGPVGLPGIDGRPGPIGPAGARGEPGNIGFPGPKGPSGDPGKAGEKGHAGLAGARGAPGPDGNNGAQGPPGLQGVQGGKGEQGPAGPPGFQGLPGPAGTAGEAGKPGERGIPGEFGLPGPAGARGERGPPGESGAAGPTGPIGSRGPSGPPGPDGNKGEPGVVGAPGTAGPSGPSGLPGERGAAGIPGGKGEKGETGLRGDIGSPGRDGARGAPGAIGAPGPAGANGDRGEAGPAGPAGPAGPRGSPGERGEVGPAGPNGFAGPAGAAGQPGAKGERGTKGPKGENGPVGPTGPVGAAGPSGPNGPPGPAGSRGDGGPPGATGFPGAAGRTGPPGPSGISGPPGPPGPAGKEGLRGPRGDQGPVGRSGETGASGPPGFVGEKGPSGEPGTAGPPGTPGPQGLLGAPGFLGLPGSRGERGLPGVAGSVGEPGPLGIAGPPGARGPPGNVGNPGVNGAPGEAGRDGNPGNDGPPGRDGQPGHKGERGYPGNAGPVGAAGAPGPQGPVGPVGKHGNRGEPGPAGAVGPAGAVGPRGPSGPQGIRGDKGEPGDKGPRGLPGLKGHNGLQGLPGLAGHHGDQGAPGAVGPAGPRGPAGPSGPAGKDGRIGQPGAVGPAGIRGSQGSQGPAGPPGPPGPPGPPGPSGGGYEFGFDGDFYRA
# [3] = test system: Escherichia coli strain DB3.1; assay: micro-dilution assay of coated titanium pins and peptide controls (bacterial killing, CFU); format: cell-based; settings: for antibacterial activity, killing: 10 μg coated on SAM 1, SAM 2, SAM 3 titanium pins, 2 h
# Method: In a first experiment 10 μg of hβD2 was coated to three different SAM Hexadecyltrimethoxysilane (SAM 1), Dimethoxymethyloctylsilane (SAM 2), and oxidized Allyltrimethoxysilane (SAM 3) of the modified titanium pins. The anti-bacterial activity of the hβD2-coated pins was tested by a micro-dilution assay. Therefore, Escherichia coli strain DB3.1 (Invitrogen, Cat. No. 11782-018) was used. E. coli was streaked from a glycerol stock onto a Brain Heart Infusion (BHI) agar plate (3.7% (w/v) BHI Bouillon, 1.5% (w/v) Agar), grown overnight at 37° C. and subsequently used to inoculate 40 ml of 3.7% (w/v) BHI Bouillon without any antibiotics in 100 ml flasks. Fresh cells were harvested by centrifugation at 16000 rpm for 10 min and washed twice with 10 mM sodium phosphate buffer, pH 7.2. The optical density was adjusted to 10^4 cells/ml. For anti-bacterial testing, a single pin coated with hβD2 was incubated in one well of a microtiter plate containing 100 μl of the bacterial suspension.
# Functionalized titanium pins without hβD2 served as negative controls (SAM1-n, SAM2-n, SAM3-n, SAM4::Col-NHS-n, SAM4::Col-Glu-n). In addition, 5 independent control reactions consisting of hβD2 in a final amount of 0 (NC), 0.02 (PC1), 0.2 (PC2), 2 (PC3) and 10 (PC4) μg were examined in parallel. To determine the specificity of the anti-bacterial activity of hβD2, 10 μl (10 μg/ml in PBS) of polyclonal monospecific anti-hβD2 antibodies were co-incubated with 10 μg of hβD2 and bacterial cells (Table I, PC4/ab).
# The microtiter plates were incubated for 2 h at 37° C. The kinetic studies were performed by replacing the bacterial suspension, after 2 h of cultivation with a freshly pre-cultured E. coli solution, which contained the same bacterial concentration, and cultivating for another 2 h and so on. Colony forming units (CFU) were determined after plating 100 μl of a 1:100 dilution of the bacterial suspension on petri dishes with BHI medium and incubating them overnight at 37° C. For every group of the functionalized titanium pins and the controls, 5 independent anti-bacterial assays were performed. A control (NC) of bacterial growth was examined for every independent assay. The number of CFU on the control (consisting of a single petri dish) was set to 0% bactericidal activity. The reduction in the CFU resulting from the anti-bacterial activity of hβD2 was related to the absolute CFU of the control within every independent assay. This value, given as a percentage of the bacterial “killing” activity, was used to describe the antibacterial activity. This kind of normalisation of the antibacterial data was performed for every experimental group.
# To examine the release behavior of hβD2 that is adsorbed by different SAM modified titanium pins a time kinetic experiment was performed. The experiment was performed analogous to Example 2. For this experiment 80 μg of hβD2 was adsorbed to three different SAMs Hexadecyltrimethoxysilane (SAM1), Dimethoxymethyloctylsilane (SAM2), and oxidized Allyltrimethoxysilane (SAM3) of the modified titanium pins.
# Since it is known that collagen has a positive impact on wound healing, functionalised titanium pins with collagen were investigated. Two different cross-linking strategies for collagen on SAM3 and SAM4 were applied as described in Example 1: (i) a covalently binding strategy with the NHS/EDC cross-linking system, and (ii) the use of glutaraldehyde. Successful binding of collagen was monitored by collagen-specific DirectRed staining (as described in Example 1). […] Additionally 80 μg hβD2 was adsorbed to collagen functionalized SAM3 and SAM4 modified titanium pins, respectively. For monitoring the antibacterial activity of the bio-coated pins the experiment was performed analogous to Example 3. […]
# [4] = 80 μg adsorbed on SAM3 titanium pins, 6 h
# [5] = 80 μg on collagen SAM4 pins, NHS/EDC-system, 4 h
# [6] = 80 μg on collagen SAM4 pins, NHS/EDC-system, 6 h
# [7] = 80 μg on collagen SAM4 pins, glutaraldehyde, 4 h
# [8] = 80 μg on collagen SAM4 pins, glutaraldehyde, 6 h
molecule,measurement,setting,value
"N[C@@H](CCC(=O)O)C(=O)O [L-glutamic acid, reference compound]",self-activity (killing / reduction of the number of bacteria),[1],4%
"NCCCC[C@H](N)C(=O)O [L-lysine, reference compound]",self-activity (killing / reduction of the number of bacteria),[1],4%
"O=C([O-])CC(O)(CC(=O)[O-])C(=O)[O-].[Na+].[Na+].[Na+] [Sodium citrate, sodium citrate, reference compound]",self-activity (killing / reduction of the number of bacteria),[1],100%
"NCCCCNCCCN [spermidine, reference compound]",self-activity (killing / reduction of the number of bacteria),[1],35%
CN[C@H](CC(C)C)C(=O)N[C@H]1C(=O)N[C@@H](CC(N)=O)C(=O)N[C@H]2C(=O)N[C@H]3C(=O)N[C@H](C(=O)N[C@H](C(=O)O)c4cc(O)cc(O)c4-c4cc3ccc4O)[C@H](O)c3ccc(c(Cl)c3)Oc3cc2cc(c3O[C@@H]2O[C@H](CO)[C@@H](O)[C@H](O)[C@H]2O[C@H]2C[C@](C)(N)[C@H](O)[C@H](C)O2)Oc2ccc(cc2Cl)[C@H]1O [vancomycine],reduced colony-forming of gram-positive bacteria,gram-positive bacteria,up to 88%
chondroitin sulphate [reference compound],self-activity (killing / reduction of the number of bacteria),[1],23%
poly-L-glutamic acid [reference compound],self-activity (killing / reduction of the number of bacteria),[1],no self-activity
poly-L-lysine [reference compound],self-activity (killing / reduction of the number of bacteria),[1],100%
GIGDPVTCLKSGAICHPVFCPRRYKQIGTCGLPGTKCCKKP (ends and bridges not checked; cysteine pairing not given here) [human β-defensin-2],"hβD2 released by the scaffold (agar diffusion assay, zone of inhibition against E. coli, 10 µg hβD2 applied)",[2],40%
same,"hβD2 retarded by the scaffold (agar diffusion assay, zone of inhibition against E. coli, 10 µg hβD2 applied)",[2],60%
B1,"antibacterial activity, killing",[3],about 90%
same,killing rate,[3]; [4],21%
same,killing rate,[3]; [5],49%
same,killing rate,[3]; [6],about 22%
same,killing rate,[3]; [7],77%
same,killing rate,[3]; [8],about 8%
B2,"antibacterial activity, killing",[3],about 90%
same,killing rate,"[3]; 80 μg adsorbed on SAM1 titanium pins, 6 h",~41%
same,killing rate,[3]; [4],17%
same,killing rate,[3]; [5],53%
same,killing rate,[3]; [6],~17%
same,killing rate,[3]; [7],75%
same,killing rate,[3]; [8],~15%
